Results: patent publication US20020127702, “Methods and compositions for regulating cell cycle progression” (published 2002)

What was measured:
[1] = biological target: T1, hCdc5 DNA-binding domain (aa 1-500) (Homo sapiens, UniProt Q99459 SEQ:1-500); test: EMSA; text: abolished; details: tags: His6 fusion (pET29c(+), E. coli BL21(DE3), Ni-NTA); chain copies: forms homodimers by glutaraldehyde cross-linking in vitro; label: 32P
Description: Labeled oligonucleotides bearing substitutions in each of the bases comprising the consensus sequence were incubated with recombinant His₆-hCdc5 and gel shift assays were carried out as described above to determine the binding affinities for the mutated sequences. […] Substitutions at any other position abolished DNA-protein binding implicating these residues as critical for the interaction.

[2] = biological target: T1, hCdc5 DNA-binding domain (aa 1-500); test: EMSA; amino terminus of hCdc5; details: tags: His6 fusion (pET29c(+), E. coli BL21(DE3), Ni-NTA); chain copies: forms homodimers by glutaraldehyde cross-linking in vitro
Source text: (§1) To determine whether hCdc5 interacts with specific genomic sequences through direct DNA binding, we first surveyed the 12 genomic sequences (totaling ˜36,200 bp) identified by binding selection in yeast for the synthetic consensus binding sequence identified by cyclic amplification and selection in the example above. An exact match was not found, although this was not surprising as the likelihood of finding a unique 12 bp sequence is 6×10⁻⁸, and is predicted to occur by chance ˜180 times in the human genome. We then used the information obtained by scanning mutagenesis to look for sites containing the core “ANCA” motif flanked by palindromes within the genomic clones. […] Complementary oligonucleotides representing the sequences in Table 2 flanked by the non-random oligo flanking sequences used in the oligonucleotide selection experiments described above were used for the gel shift assays. Two of these active binding sites were found in the two clones which represented overlapping sequences from the same region of the genome (clones 6 and 30). All 3 sites shared features of the consensus binding sequence: a core “ANCA” motif, AT-rich flanking palindromes, and a distance between core and palindromes of no more than 3 bp.

[3] = biological target: T1, hCdc5 DNA-binding domain (aa 1-500); test: EMSA; amino terminus of hCdc5; clones 6 and 30 overlap; clone 6 printed as … in table but SEQ 15 given; details: tags: His6 fusion (pET29c(+), E. coli BL21(DE3), Ni-NTA); chain copies: forms homodimers by glutaraldehyde cross-linking in vitro
Source text: as §1

[4] = biological target: T1, hCdc5 DNA-binding domain (aa 1-500); test: EMSA; single-stranded sense; details: tags: His6 fusion (pET29c(+), E. coli BL21(DE3), Ni-NTA); chain copies: forms homodimers by glutaraldehyde cross-linking in vitro
[5] = biological target: hCdc5 W31G W53G W82G mutant (Homo sapiens, UniProt Q99459 SEQ:1-500, W31G,W53G,W82G); test: EMSA; data not shown; details: label: 32P
hCdc5 W31G W53G W82G mutant, sequence (Q99459 1-500 W31G/W53G/W82G): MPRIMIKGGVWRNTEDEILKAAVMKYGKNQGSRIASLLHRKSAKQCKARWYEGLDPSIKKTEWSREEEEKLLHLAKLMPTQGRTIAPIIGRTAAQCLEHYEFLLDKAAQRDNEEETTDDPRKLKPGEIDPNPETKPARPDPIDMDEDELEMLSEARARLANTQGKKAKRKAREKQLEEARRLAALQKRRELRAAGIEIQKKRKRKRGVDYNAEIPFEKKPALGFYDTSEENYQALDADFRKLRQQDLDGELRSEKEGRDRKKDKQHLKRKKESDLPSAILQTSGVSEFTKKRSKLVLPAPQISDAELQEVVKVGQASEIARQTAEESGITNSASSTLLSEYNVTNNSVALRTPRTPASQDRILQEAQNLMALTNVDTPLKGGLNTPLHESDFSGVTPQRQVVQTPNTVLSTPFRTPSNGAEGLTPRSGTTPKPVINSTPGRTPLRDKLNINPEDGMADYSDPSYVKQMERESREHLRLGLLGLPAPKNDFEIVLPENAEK

[6] = biological target: T1, hCdc5 DNA-binding domain (aa 1-500); test: EMSA; 1 nM DNA, 2.5-40 nM protein; 10 mM HEPES pH 7.8, 75 mM KCl, 2.5 mM MgCl2, poly(dI-dC), room temperature; details: tags: His6 fusion (pET29c(+), E. coli BL21(DE3), Ni-NTA); chain copies: forms homodimers by glutaraldehyde cross-linking in vitro; label: 32P
[7] = biological target: T1, hCdc5 DNA-binding domain (aa 1-500); test: EMSA; single-stranded antisense; details: tags: His6 fusion (pET29c(+), E. coli BL21(DE3), Ni-NTA); chain copies: forms homodimers by glutaraldehyde cross-linking in vitro
[8] = biological target: T1, hCdc5 DNA-binding domain (aa 1-500); test: EMSA; data not shown; protein construct not specified; details: tags: His6 fusion (pET29c(+), E. coli BL21(DE3), Ni-NTA); chain copies: forms homodimers by glutaraldehyde cross-linking in vitro

T1 sequence (Q99459 1-500): as the sequence (Q99459 1-500 W31G/W53G/W82G) above, with G31W, G53W, G82W counted along it

B1: consensus mutant position 4 (dsDNA)
DNA 1: GATGTAACATAA
DNA 2: TTATGTTACATC
binding signal [1]: 0.2 fraction of control

B2: genomic clone 12 site 1 (dsDNA)
DNA 1: CGCTCGAGGGATCCGAATTCAAAGGGGAACACTTTTCTAGAAAGCTTGTCGACGC
DNA 2: GCGTCGACAAGCTTTCTAGAAAAGTGTTCCCCTTTGAATTCGGATCCCTCGAGCG
binding result [2]: binds

B3: genomic clone 25 site (dsDNA)
DNA 1: CGCTCGAGGGATCCGAATTCAATTCCCCGGATCATTGCAAACAATTTCTAGAAAGCTTGTCGACGC
DNA 2: GCGTCGACAAGCTTTCTAGAAATTGTTTGCAATGATCCGGGGAATTGAATTCGGATCCCTCGAGCG
binding result [2]: no binding

B4: consensus mutant position 10 (dsDNA)
DNA 1: GATTTAACAGAA
DNA 2: TTCTGTTAAATC
binding signal [1]: 0.2 fraction of control

B5: genomic clone 8 site (dsDNA)
DNA 1: CGCTCGAGGGATCCGAATTCAATGAACGAATCAAATTTCTAGAAAGCTTGTCGACGC
DNA 2: GCGTCGACAAGCTTTCTAGAAATTTGATTCGTTCATTGAATTCGGATCCCTCGAGCG
binding result [2]: no binding

B6: consensus mutant position 9 (dsDNA)
DNA 1: GATTTAACCTAA
DNA 2: TTAGGTTAAATC
binding signal [1]: 0.2 fraction of control

B7: genomic clone 6/30 site (dsDNA)
DNA 1: CGCTCGAGGGATCCGAATTCAATAAAATCAAAATTTCTAGAAAGCTTGTCGACGC
DNA 2: GCGTCGACAAGCTTTCTAGAAATTTTGATTTTATTGAATTCGGATCCCTCGAGCG
binding result [3]: binds

GATTTAACATAA (ssDNA) [consensus site single-stranded sense]
binding result [4]: no binding

B8: consensus mutant position 6 (dsDNA)
DNA 1: GATTTCACATAA
DNA 2: TTATGTGAAATC
binding signal [1]: 0.1 fraction of control

B9: hCdc5 consensus site (dsDNA)
DNA 1: GATTTAACATAA
DNA 2: TTATGTTAAATC
binding result [5]: no binding | Kd [6]: ~10 nM

B10: genomic clone 12 site 2 (dsDNA)
DNA 1: CGCTCGAGGGATCCGAATTCCCCCCCTTTAAACCAGCGTGGAGGGGGGTCTAGAAAGCTTGTCGACGC
DNA 2: GCGTCGACAAGCTTTCTAGACCCCCCTCCACGCTGGTTTAAAGGGGGGGAATTCGGATCCCTCGAGCG
binding result [2]: no binding

TTATGTTAAATC (ssDNA, [NONE]) [consensus site single-stranded antisense]
binding result [7]: no binding

B11: new-palindrome mutant GATATAACATAT (dsDNA)
DNA 1: GATATAACATAT
DNA 2: ATATGTTATATC
binding result [8]: no binding

B12: consensus mutant position 8 (dsDNA)
DNA 1: GATTTAATATAA
DNA 2: TTATATTAAATC
binding signal [1]: 0.2 fraction of control

B13: new-palindrome mutant GATGTAACATAC (dsDNA)
DNA 1: GATGTAACATAC
DNA 2: GTATGTTACATC
binding result [8]: no binding

B14: consensus mutant position 11 (dsDNA)
DNA 1: GATTTAACATCA
DNA 2: TGATGTTAAATC
binding signal [1]: 0.2 fraction of control

B15: consensus mutant position 3 (dsDNA)
DNA 1: GAGTTAACATAA
DNA 2: TTATGTTAACTC
binding signal [1]: 0.2 fraction of control
